Data set [1] in a line: In vitro sialylation of LNT by protein extracts, LST-a/-b quantified by LC-MS/MS. It is filed as biochemical. The following applies: for Ranking in the screening for sialylation of LNT: in words. A digest of the protocol: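 E. coli BL21(DE3) crude extracts overexpressing sialyltransferases (IPTG 0.3 mM, 12–16 h at 30 °C) incubated 16 h with 5 mM LNT and 10 mM CMP-Neu5Ac in 50 mM Tris-HCl pH 7.5, 5 mM MgCl2. LST-a and LST-b measured by HILIC LC-MS/MS, MRM in ESI negative mode, against commercial standards.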

The nature of data set [2]: In vitro kinetics (Km, Vmax), donor substrate CMP-Neu5Ac. It is filed as biochemical. The following applies: for Km / Vmax CMP-Neu5Ac: 30° C., pH7.5, protein extract. Here is the method:
(§1) To rank the best performing sialyltransferases, their Km values for donor and acceptor substrates were determined in vitro. Escherichia coli BL21(DE3) strain #287 was used for overproduction of the enzymes. Cells were incubated in 100 ml 2YT medium in shaking flasks supplemented with 100 μg m^−1 ampicillin at 30° C. until an OD600 of 0.3 was reached. Then, 0.3 mM IPTG was added and the incubation was continued for 12 to 16 hours. Cells were harvested by centrifugation and mechanically disrupted in a defined volume of 50 mM Tris-HCl pH7.5 using glass beads. The protein extract was kept on ice until the assay started. The in vitro assay was carried out in a total volume of 50 μl including 50 mM Tris-HCl pH7.5, 5 mM MgCl2 and varying concentrations of CMP-Neu5Ac (0.05-30 mM) as well as of lactose or LNT (0.1-50 mM). The assay started with the addition of 35 to 750 μg protein extract. After 1 to 10 minutes of incubation at 30° C., the assay was inactivated at 95° C. for 5 minutes. Product formation was determined by mass spectrometry. Data were evaluated using the enzyme kinetic module of SigmaPlot v12.5 to calculate Km and Vmax.
(§2) Their kinetic parameters for CMP-Neu5Ac and LNT as well as lactose are depicted in Table 6.

Data set [3] in a line: In vitro kinetics (Km, Vmax), acceptor substrate lactose. Particulars: 30° C., pH7.5, protein extract. It is filed as biochemical. On the procedure:
as §1, §2

Data set [4] in a line: In vitro kinetics (Km, Vmax), acceptor substrate LNT. It is filed as biochemical. The following applies: 30° C., pH7.5, protein extract. Here is the method: as §1, §2
Data set [5] is described as follows: In vivo screening in E. coli #1363/#1730 with lactose as acceptor, sialyllactose identified by TLC. It is filed as cell-based, Escherichia coli BL21(DE3). Particulars: for Production of sialyllactose in-vivo: 1.5 mM lactose, 72 to 96 hours, qualitative via TLC. A digest of the protocol:
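E. coli BL21(DE3) #1363/#1730 expressing sialyltransferases were grown at 30 °C in mineral salts medium with 2% glucose and induced with 0.3 mM IPTG. After 1 h, 1.5 mM lactose was added, plus 1.5 mM sialic acid for #1730, and incubation ran 72–96 h. Cell lysates were analysed by silica TLC with thymol staining.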

The mark [6] stands for this setting: 5 mM LNT, 10 mM CMP-Neu5Ac, 16 hours, LC-MS/MS, relative quantity, n.d.: not detectable.

B1: SiaT8: sialyltransferase of Photobacterium sp. JT-ISH-224, acc. BAF92025, SEQ ID NO: 3 (protein, listed as Photobacterium sp.)
chain: MGCNSDSNHNNSDGNITKNKTIEVYVDRATLPTIQQMTQIINENSNNKKLISWSRYPINDEELLESINGSFFKNNSELIKSLDSMILTNDIKKVIINGNTLWAADVVNIIKSIEAFGKKTEIELNFYDDGSAEYVRLYDFSKLPESEQEYKISLSKDNILSSINGTQPFENVVENIYGFSQLYPTTYHMLRADIFETNLPLRSLKGVLSNNIKQMKWDYFKTFNSQQKDKFYNFTGFNPDEIMEQYKASPNKNFIFVGTNSGTATAEQQIDILTEAKNPNSPIITKSIQGFDLFFKGHPSATYNKQIIDAHNMIEIYNKIPFEALIMTDALPDAVGGMGSSVFFSLPNTVENKFIFYKSDTDIENNALIQVMIELNIVNRNDVKLISDLQ
Consider B1, for which the “Relative efficacy of sialyltransferases regarding in-vitro production of sialyllacto-N-tetraoses: LST-a” value in data set [1] (setting [6]) is on record as 4.00 × 10^3. Further, the “Ranking in the screening for sialylation of LNT” value (from here on “Ranking in the screening”) in data set [1] was “best performing α-2,3-sialyltransferases for LST-a production”. In addition, in data set [2], the Km worked out at 4 mM and the “Vmax CMP-Neu5Ac” value turned out to be 0.35 µmol/min. Also, in data set [3], the Km came to 4.3 mM and the “Vmax Lactose” value came to 0.37 µmol/min. In data set [4], the Km was 4.2 mM and the “Vmax LNT” value worked out at 0.32 µmol/min.

B2: SiaT20: sialyltransferase of Campylobacter coli, acc. YP_008473374, SEQ ID NO: 1 (protein, listed as Campylobacter coli)
chain: MQNVIIAGNGPSLQSINYQRLPKEYDIFRCNQFYFEDKYYLGKNIKAAFFNPYPFLQQYHTAKQLVFNNEYKIENIFCSTFNLPFIEKDNFINKFYDFFPDAKLGHKIIENLKEFYAYIKYNEIYLNKRITSGIYMCAIAIALGYKNIYLCGIDFYEGETIYPFKAMSKNIKKIFPWIKDFNPSNFHSKEYDIEILKLLESIYKVNIYALCDNSALANYFPLLVNTDNSFVLENKSDDCINDILLTNNTPGINFYKSQIQVNNTEILLLNFQNMISAKENEISNLNKILQDSYKTINTKENEISNLNKILQDSYKTINTKENEISNLNKILQDKDKLLIVKENLLNFKSRHGKAKFRIQNQLSYKLGQAMMVNSKSLLGYIRMPFVLSYIKDKHKQEQKIYQEKIKKDPSLTLPPLEDYPDYKEALKEKECLTYRLGQTLIKADQEWYKGGYVKMWFEIKKLKKEYKKK
With B2, in data set [1] (setting [6]), the “Relative efficacy of sialyltransferases regarding in-vitro production of sialyllacto-N-tetraoses: LST-a” value is given as 1.00 × 10^4. For the same molecule, the “Ranking in the screening” value in data set [1] is “best performing α-2,3-sialyltransferases for LST-a production”. Besides, the “Production of sialyllactose in-vivo” value in data set [5] is listed as 3′-SL. Also, the Michaelis-Menten behaviour entry in data set [2] (kinetic parameters for CMP-Neu5Ac, LNT and lactose) was “does not follow a Michaelis-Menten kinetic”.

B3: SiaT6: sialyltransferase of Photobacterium sp. JT-ISH-224, acc. BAF92026, SEQ ID NO: 29 (protein, listed as Photobacterium sp.)
chain: MSEENTQSIIKNDINKTIIDEEYVNLEPINQSNISFTKHSWVQTCGTQQLLTEQNKESISLSVVAPRLDDDEKYCFDFNGVSNKGEKYITKVTLNVVAPSLEVYVDHASLPTLQQLMDIIKSEEENPTAQRYIAWGRIVPTDEQMKELNITSFALINNHTPADLVQEIVKQAQTKHRLNVKLSSNTAHSFDNLVPILKELNSFNNVTVTNIDLYDDGSAEYVNLYNWRDTLNKTDNLKIGKDYLEDVINGINEDTSNTGTSSVYNWQKLYPANYHFLRKDYLTLEPSLHELRDYIGDSLKQMQWDGFKKFNSKQQELFLSIVNFDKQKLQNEYNSSNLPNFVFTGTTVWAGNHEREYYAKQQINVINNAINESSPHYLGNSYDLFFKGHPGGGIINTLIMQNYPSMVDIPSKISFEVLMMTDMLPDAVAGIASSLYFTIPAEKIKFIVFTSTETITDRETALRSPLVQVMIKLGIVKEENVLFWADLPNCETGVCIAV
In the case of B3, in data set [1] (setting [6]), the “Relative efficacy of sialyltransferases regarding in-vitro production of sialyllacto-N-tetraoses: LST-b” value amounted to 300. In addition, the “Ranking in the screening” value in data set [1] was “sialylate LNT most efficiently among the tested α-2,6-sialyltransferases”. Also, the “Production of sialyllactose in-vivo” value in data set [5] is listed as 6′-SL. Further, the “Described activity confirmed in the lactose screening” value in data set [5] (in words) was “could be confirmed”. In data set [2], the Km came to 2 mM and the “Vmax CMP-Neu5Ac” value was 0.16 µmol/min. Besides, in data set [3], the Km is 5.6 mM and the “Vmax Lactose” value is 0.20 µmol/min. In addition, in data set [4], the Km amounted to 5.5 mM and the “Vmax LNT” value came to 0.13 µmol/min.

The Km is the concentration of substrate that gives half-maximal velocity.

The values are drawn from patent US12692524B2, “Sialyltransferases and their use in producing sialylated oligosaccharides” (Chr. Hansen A/S, priority 2017, dated 2026).
